Consider six molecules from patent publication US20190270826A1 (Janssen / Centocor, published 2019).

Positions count from the first letter of the chain named.

The target in test [1] is T1, recombinant human IL1RAP ECD (human, UniProt Q9NPH3 21-367).
T1 construct: His-tagged; also called hIL1RAP-ECD; rhuIL1RAP
T1 sequence: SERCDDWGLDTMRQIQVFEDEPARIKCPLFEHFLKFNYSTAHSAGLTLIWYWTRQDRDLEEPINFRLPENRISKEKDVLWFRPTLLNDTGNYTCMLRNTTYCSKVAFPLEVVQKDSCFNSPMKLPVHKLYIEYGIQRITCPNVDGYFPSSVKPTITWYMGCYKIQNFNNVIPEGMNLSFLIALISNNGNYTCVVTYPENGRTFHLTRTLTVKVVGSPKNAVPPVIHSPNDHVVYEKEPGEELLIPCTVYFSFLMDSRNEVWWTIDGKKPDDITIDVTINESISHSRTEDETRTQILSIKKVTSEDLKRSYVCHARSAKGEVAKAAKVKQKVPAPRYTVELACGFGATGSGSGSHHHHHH
Description: SPR (ProteOn). On the procedure:
The rates of IL1RAP ECD association and dissociation were measured for each variant. The biosensor surface was prepared by covalently coupling Goat anti-Human IgG (Fc) to the surface of a GLC chip (BioRad) using the manufacturer instructions for amine-coupling chemistry. […] The RU immobilized also included a goat anti-mouse Fc antibody that was added to capture other antibodies not included in the ones reported here. Since the mixture was 1:1 about 50% of these RU immobilized are expected to be goat anti-human Fc. The kinetic experiments were performed at 25° C. in running buffer (PBS pH 7.4, 0.005% P20, 3 mM EDTA). […] (1:3) serial dilutions of human IL1RAP ECD, starting at 400 nM were prepared in running buffer. […] The reference spots (Goat anti-Human IgG (Fc)-modified surface) containing no candidate captured were used as a reference surface. Capture of mAb was followed by a 3 minute injection (association phase) of antigen at 40 μL/min, followed by 10 minutes of buffer flow (dissociation phase). […] Data was processed on the instrument software. Double reference subtraction of the data was performed by subtracting the curves generated by buffer injection from the reference-subtracted curves for analyte injections. Kinetic analysis of the data was performed using 1:1 Langmuir binding model with group fit.

Test [2] deals with T2, recombinant cyno IL1RAP ECD (cynomolgus monkey, UniProt P59822 21-367 (rhesus entry)).
T2 construct: also called rcynoIL1RAP
T2 sequence: T1 sequence with L183F, T273P, K326T
The test can be described thus: recombinant protein.

In test [3] the target is T1, recombinant human IL1RAP ECD. The test can be described thus: SPR, summary. (SPR reads the build-up and loss of mass on a sensor chip optically.)
The target in test [4] is T3, cyno IL1RAP ECD displayed on HEK-293F cells (pDisplay) (cynomolgus monkey, UniProt P59822 21-367 (rhesus entry)).
T3 sequence: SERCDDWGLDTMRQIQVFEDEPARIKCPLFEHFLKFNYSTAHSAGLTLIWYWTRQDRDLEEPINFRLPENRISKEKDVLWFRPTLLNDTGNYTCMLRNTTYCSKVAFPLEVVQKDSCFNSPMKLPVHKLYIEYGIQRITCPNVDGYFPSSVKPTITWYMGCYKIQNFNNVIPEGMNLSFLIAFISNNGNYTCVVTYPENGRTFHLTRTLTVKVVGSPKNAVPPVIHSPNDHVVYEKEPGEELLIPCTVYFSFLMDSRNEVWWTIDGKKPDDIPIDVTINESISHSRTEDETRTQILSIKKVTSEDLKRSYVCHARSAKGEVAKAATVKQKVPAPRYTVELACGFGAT
Description: HEK-293F cells (MSD).

For a further test, the target named is T4, human FcγRIIb (human, UniProt P31994 43-217, limits assumed).
T4 construct: GST-tagged
T4 sequence (looked up): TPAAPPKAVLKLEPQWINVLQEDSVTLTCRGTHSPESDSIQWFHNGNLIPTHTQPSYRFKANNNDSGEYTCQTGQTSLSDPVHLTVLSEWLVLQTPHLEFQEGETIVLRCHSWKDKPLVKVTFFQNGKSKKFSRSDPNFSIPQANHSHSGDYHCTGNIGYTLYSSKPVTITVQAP
Description: AlphaScreen competition, human FcγRIIb (n=1); displaced: biotinylated control mAb B21M hIgG1 WT; pH 7.2. An excerpt:
(§1) Measurements were made using an AlphaScreen™ assay (Amplified Luminescent Proximity Homogeneous Assay (ALPHA), PerkinElmer, Wellesley, Mass.), a bead-based luminescent proximity assay. Laser excitation of a donor bead excites oxygen, which if sufficiently close to the acceptor bead generates a cascade of chemiluminescent events, ultimately leading to fluorescence emission at 520-620 nm.

Another test deals with T5, human FcRn (human, UniProt P55899 24-297; P61769 21-119, limits assumed).
T5 construct: GST-tagged
The test can be described thus: AlphaScreen competition, human FcRn (n=1); displaced: biotinylated control mAb B21M WT IgG1 (m27); pH 6.0.
Text: as §1
(Alpha assays give light when donor and acceptor beads are brought close together.)

A further test addresses T6, human FcγRI (human, UniProt P12314 16-292, limits assumed).
T6 construct: GST-tagged, on glutathione acceptor beads; also called FcγRT [sic]
The test can be described thus: AlphaScreen competition, human FcγRI (n=1); displaced: biotinylated control mAb B21M hIgG1 AlaAla; pH 7.2.
Text: as §1

Test [5] concerns the target T7, mouse IL1RAP ECD displayed on HEK-293F cells (pDisplay) (mouse, UniProt Q61730 21-367).
T7 sequence: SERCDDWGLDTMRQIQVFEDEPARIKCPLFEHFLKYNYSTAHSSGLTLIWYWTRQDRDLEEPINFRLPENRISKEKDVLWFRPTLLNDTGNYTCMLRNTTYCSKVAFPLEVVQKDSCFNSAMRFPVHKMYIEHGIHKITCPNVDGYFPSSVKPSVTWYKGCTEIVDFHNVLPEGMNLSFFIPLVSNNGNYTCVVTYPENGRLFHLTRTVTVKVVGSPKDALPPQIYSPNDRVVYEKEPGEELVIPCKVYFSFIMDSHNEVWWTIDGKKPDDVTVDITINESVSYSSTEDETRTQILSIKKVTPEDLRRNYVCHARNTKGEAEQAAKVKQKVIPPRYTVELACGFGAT
The test can be described thus: HEK-293F cells (MSD).

The target of test [6] is T8, rat IL1RAP ECD displayed on HEK-293F cells (pDisplay) (rat, UniProt Q63621 21-367).
T8 sequence: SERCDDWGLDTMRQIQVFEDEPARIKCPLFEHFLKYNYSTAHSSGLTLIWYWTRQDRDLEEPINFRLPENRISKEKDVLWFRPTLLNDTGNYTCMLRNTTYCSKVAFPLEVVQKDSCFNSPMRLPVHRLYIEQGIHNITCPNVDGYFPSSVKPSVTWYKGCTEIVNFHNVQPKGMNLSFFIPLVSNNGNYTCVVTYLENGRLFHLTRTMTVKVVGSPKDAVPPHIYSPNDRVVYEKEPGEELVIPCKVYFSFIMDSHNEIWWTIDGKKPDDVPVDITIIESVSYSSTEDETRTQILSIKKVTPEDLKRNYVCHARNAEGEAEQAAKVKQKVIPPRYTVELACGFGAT
The test can be described thus: HEK-293F cells (MSD).

B1: IAPB23 (antibody, human IgG4 S228P, kappa, F234A L235A, V domains shown)
VH: EVQLLESGGGLVQPGGSLRLSCAASGFTFSNYWMNWVRQAPGKGLEWVSAIRYDGGSKYYADSVKGRFTISRDNSKNTLYLQMNSLRAEDTAVYYCAKDAYPPYSFDYWGQGTLVTVSS
VL: EIVLTQSPATLSLSPGERATLSCRASQSVSSYLAWYQQKPGQAPRLLIYDASNRATGIPARFSGSGSGTDFTLTISSLEPEDFAVYYCQQRSNWPLTFGQGTKVEIKR
notes: IgG4-PAA; whole chains
With B1, in [1], the dissociation constant (Kd) worked out at 4.7 nM, the off-rate constant (koff) turned out to be 0.00149 s⁻¹ and the kon is 317000 M⁻¹ s⁻¹. Besides, the binding result in test [2] is listed as “binds”. Moreover, the equilibrium dissociation constant (Kd) in [3] amounted to 4.7 nM. Further, the binding result in [4] is “binds”.

B2: CD3B219 - CD3B219 Parental, IgG4 PAA (antibody)
heavy chain: EVQLVESGGGLVQPGGSLRLSCAASGFTFNTYAMNWVRQAPGKGLEWVARIRSKYNNYATYYAASVKGRFTISRDDSKNSLYLQMNSLKTEDTAVYYCARHGNFGNSYVSWFAYWGQGTLVTVSSASTKGPSVFPLAPCSRSTSESTAALGCLVKDYFPEPVTVSWNSGALTSGVHTFPAVLQSSGLYSLSSVVTVPSSSLGTKTYTCNVDHKPSNTKVDKRVESKYGPPCPPCPAPEAAGGPSVFLFPPKPKDTLMISRTPEVTCVVVDVSQEDPEVQFNWYVDGVEVHNAKTKPREEQFNSTYRVVSVLTVLHQDWLNGKEYKCKVSNKGLPSSIEKTISKAKGQPREPQVYTLPPSQEEMTKNQVSLTCLVKGFYPSDIAVEWESNGQPENNYKTTPPVLDSDGSFLLYSKLTVDKSRWQEGNVFSCSVMHEALHNHYTQKSLSLSLGK
light chain: QTVVTQEPSLTVSPGGTVTLTCRSSTGAVTTSNYANWVQQKPGQAPRGLIGGTNKRAPGTPARFSGSLLGGKAALTLSGVQPEDEAEYYCALWYSNLWVFGGGTKLTVLGQPKAAPSVTLFPPSSEELQANKATLVCLISDFYPGAVTVAWKADSSPVKAGVETTTPSKQSNNKYAASSYLSLTPEQWKSHRSYSCQVTHEGSTVEKTVAPTECS
Consider B2, for which the binding result with human FcγRIIb is given as “binds”. For the same molecule, the “IC50 (read off the curve)” value is approximately 200 nM with human FcRn and approximately 60 nM with human FcγRI.

B3: IAPB57 (antibody, human IgG4 S228P, kappa, F234A L235A)
heavy: not shown
light: DIQLTQSPSFLSASVGDRVTITCRASQGISSYLAWYQQKPGKAPKLLIYAASTLQSGVPSRFSGSGSGTEFTLTISSLQPEDFATYYCQQVNSYPLTFGGGTKVEIKRTVAAPSVFIFPPSDEQLKSGTASVVCLLNNFYPREAKVQWKVDNALQSGNSQESVTEQDSKDSTYSLSSTLTLSKADYEKHKVYACEVTHQGLSSPVTKSFNRGEC
notes: IgG4-PAA; whole chains
Regarding B3, the binding result (with human FcγRIIb; in test [2]; in test [4]) was “binds” throughout. In addition, the “IC50 (read off the curve)” value with human FcRn was approximately 200 nM; in the test with human FcγRI, approximately 100 nM. Moreover, in test [3], the Kd came to 0.16 nM.

B4: IAPB03 (antibody, human IgG4 S228P, kappa, F234A L235A, V domains shown)
VH: QVQLVQSGAEVKKPGSSVKVSCKASGGTFSSYAISWVRQAPGQGLEWMGGISAIFGTANYAQKFQGRVTITADESTSTAYMELSSLRSEDTAVYYCARGNSFHALWDYAFDYWGQGTLVTVSS
VL: not shown
notes: IgG4-PAA; the entries called VH/VL are whole chains; also called IAPB3
For B4, in [1], the equilibrium dissociation constant (Kd) was 2.64 nM, the koff turned out to be 0.000357 s⁻¹ and the on-rate (kon) was 135000 M⁻¹ s⁻¹. Moreover, the binding result in test [2] is “binds”. The Kd in test [3] was determined as 2.64 nM. The binding result in [4] was “binds”.

B5: IAPB61 (antibody, human IgG4 S228P, kappa, F234A L235A, V domains shown)
VH: QLQLQESGPGLVKPSETLSLTCTVSGVSISSSTYYWGWLRQPPGMGLEWTGSIYFTGNTYYNPSLKSRVTISVDTSRNQFSLKLSSVTAADTAVYYCGSLFGDYGYFDYWGQGTLVTVSS
VL: EIVMTQSPATLSVPPGERATLSCRASQFISSNLAWYQQKPGQAPRLLIYGASTRATGIPARFSGSGSGTDFTLTISSLQSEDFAVYYCQQYNNWPSTFGPGTKVDIKR
notes: IgG4-PAA; whole chains
As for B5, the binding result in test [2] and in test [4] was “binds” each time. In test [3], the dissociation constant (Kd) worked out at 17.5 nM.

B6: IAPB47 (antibody, human IgG4 S228P, kappa, F234A L235A, V domains shown)
VH: EVQLVQSGAEVKKPGESLKISCKGSGYSFTSYWIGWVRQMPGKGLEWMGIIYPSDSYTRYSPSFQGQVTISADKSISTAYLQWSSLKASDTAMYYCARRNSAENYADLDYWGQGTLVTVSS
VL: EIVLTQSPGTLSLSPGERATLSCRASQSISNDLNWYQQKPGKAPKLLIYYASSLQSGVPSRFSGSGSGTDFTLTINSLQPEDFATYYCQQSFTAPLTFGQGTKVEIKR
notes: IgG4-PAA; whole chains
With B6, the equilibrium dissociation constant (Kd) in test [1] and in test [3] was 1.24 nM throughout. Besides, in test [1], the off-rate constant (koff) was found to be 0.000811 s⁻¹. The association rate constant (kon) in test [1] was 653000 M⁻¹ s⁻¹. The binding result in test [2], in test [4], in test [5] and in test [6] was “binds” throughout.

One may read the Kd as the equilibrium constant for the complex coming apart. One may read the koff as a measure of how fast the partners let go of each other. In general, kon refers to the rate constant with which the complex forms.
